# Patent US9802997B2, “Peptides and combination of peptides for use in immunotherapy against various tumors” (immatics biotechnologies GmbH, priority 2015, dated 2017)
# Target: HLA-A*02:01 (Homo sapiens, UniProt P04439, D140Y/D185E/D98H/E176V/E277Q/G131W/G231S/I119V/I121R/I166T/I218V/L300P/L318F/N151K/N90K/P208A/P217A/Q86G/Q94H/R138H/R169H/T345S)
# Experiment: MHC binding assay (UV-ligand exchange, beta2m ELISA)
# Conditions: binding to HLA-A*02:01, β2m ELISA
# Description: Candidate peptides for T cell based therapies according to the present invention were further tested for their MHC binding capacity (affinity). The individual peptide-MHC complexes were produced by UV-ligand exchange, where a UV-sensitive peptide is cleaved upon UV-irradiation, and exchanged with the peptide of interest as analyzed. Only peptide candidates that can effectively bind and stabilize the peptide-receptive MHC molecules prevent dissociation of the MHC complexes. To determine the yield of the exchange reaction, an ELISA was performed based on the detection of the light chain (β2m) of stabilized MHC complexes. The assay was performed as generally described in Rodenko et al. (Rodenko et al., 2006).
# 96 well MAXISorp plates (NUNC) were coated over night with 2 ug/ml streptavidin in PBS at room temperature, washed 4× and blocked for 1 h at 37° C. in 2% BSA containing blocking buffer. Refolded HLA-A*02:01/MLA-001 monomers served as standards, covering the range of 15-500 ng/ml. Peptide-MHC monomers of the UV-exchange reaction were diluted 100 fold in blocking buffer. Samples were incubated for 1 h at 37° C., washed four times, incubated with 2 ug/ml HRP conjugated anti-β2m for 1 h at 37° C., washed again and detected with TMB solution that is stopped with […]. Absorption was measured at 450 nm. Candidate peptides that show a high exchange yield (preferably higher than 50%, most preferred higher than 75%) are generally preferred for a generation and production of antibodies or fragments thereof, and/or T cell receptors or fragments thereof, as they show sufficient avidity to the MHC molecules and prevent dissociation of the MHC complexes.
row,Substance,"Peptide exchange (MHC class I binding score, peptide exchange yield)"
1,147 (GLLSALENV; listed as Homo sapiens) [compound 147],+++ (≧50 = +++)
2,148 (YLILSSHQL; listed as Homo sapiens) [compound 148],+++ (≧50 = +++)
3,149 (NMADGQLHQV; listed as Homo sapiens) [compound 149],++ (≧20% = ++)
4,150 (VLLDMVHSL; listed as Homo sapiens) [compound 150],+++ (≧50 = +++)
5,151 (DISKRIQSL; listed as Homo sapiens) [compound 151],++ (≧20% = ++)
6,153 (KLVELEHTL; listed as Homo sapiens) [compound 153],+++ (≧50 = +++)
7,154 (AIIKEIQTV; listed as Homo sapiens) [compound 154],++ (≧20% = ++)
8,155 (TLDSYLKAV; listed as Homo sapiens) [compound 155],++ (≧20% = ++)
9,158 (YLDPLWHQL; listed as Homo sapiens) [compound 158],+++ (≧50 = +++)
10,159 (QLGPVPVTI; listed as Homo sapiens) [compound 159],+++ (≧50 = +++)
11,160 (TLQEWLTEV; listed as Homo sapiens) [compound 160],+++ (≧50 = +++)
12,161 (NLLDENVCL; listed as Homo sapiens) [compound 161],++++ (≧75% = ++++)
13,162 (GLLGNLLTSL; listed as Homo sapiens) [compound 162],+++ (≧50 = +++)
14,163 (GLEERLYTA; listed as Homo sapiens) [compound 163],++ (≧20% = ++)
15,164 (MLIIRVPSV; listed as Homo sapiens) [compound 164],+++ (≧50 = +++)
16,165 (SLLDYEVSI; listed as Homo sapiens) [compound 165],+++ (≧50 = +++)
17,166 (LLGDSSFFL; listed as Homo sapiens) [compound 166],+++ (≧50 = +++)
18,167 (LVVDEGSLVSV; listed as Homo sapiens) [compound 167],+++ (≧50 = +++)
19,168 (VIFEGEPMYL; listed as Homo sapiens) [compound 168],+++ (≧50 = +++)

row,Substance,"Peptide exchange (MHC class I binding score, peptide exchange yield)"
1,169 (ALADLSVAV; listed as Homo sapiens) [compound 169],+++ (≧50 = +++)
2,170 (FIAAVVEKV; listed as Homo sapiens) [compound 170],++ (≧20% = ++)
3,171 (LLLLDVPTA; listed as Homo sapiens) [compound 171],++ (≧20% = ++)
4,173 (RLIDIYKNV; listed as Homo sapiens) [compound 173],+++ (≧50 = +++)
5,174 (ALYSGDLHAA; listed as Homo sapiens) [compound 174],++ (≧20% = ++)
6,175 (SLLDLVQSL; listed as Homo sapiens) [compound 175],+++ (≧50 = +++)
7,176 (VQSGLRILL; listed as Homo sapiens) [compound 176],++ (≧20% = ++)
8,177 (ALINVLNAL; listed as Homo sapiens) [compound 177],+++ (≧50 = +++)
9,178 (SLVSWQLLL; listed as Homo sapiens) [compound 178],++++ (≧75% = ++++)
10,179 (TLGEIIKGV; listed as Homo sapiens) [compound 179],+++ (≧50 = +++)
11,180 (RLYEEEIRI; listed as Homo sapiens) [compound 180],+++ (≧50 = +++)
12,181 (LLWAPTAQA; listed as Homo sapiens) [compound 181],+++ (≧50 = +++)
13,182 (GLQDGFQITV; listed as Homo sapiens) [compound 182],+++ (≧50 = +++)
14,183 (ALSYILPYL; listed as Homo sapiens) [compound 183],+++ (≧50 = +++)
15,184 (ALDSTIAHL; listed as Homo sapiens) [compound 184],++ (≧20% = ++)
16,185 (TLYQGLPAEV; listed as Homo sapiens) [compound 185],++ (≧20% = ++)
17,187 (SILKEDPFL; listed as Homo sapiens) [compound 187],++ (≧20% = ++)
18,188 (VLGEEQEGV; listed as Homo sapiens) [compound 188],++ (≧20% = ++)
19,190 (SLSTELFKV; listed as Homo sapiens) [compound 190],+++ (≧50 = +++)

row,Substance,"Peptide exchange (MHC class I binding score, peptide exchange yield)"
1,191 (AAIEIFEKV; listed as Homo sapiens) [compound 191],+++ (≧50 = +++)
2,192 (TLLPSSGLVTL; listed as Homo sapiens) [compound 192],++ (≧20% = ++)
3,193 (ALFHMNILL; listed as Homo sapiens) [compound 193],+++ (≧50 = +++)
4,194 (KLLEEVQLL; listed as Homo sapiens) [compound 194],++ (≧20% = ++)
5,195 (VIIQNLPAL; listed as Homo sapiens) [compound 195],+++ (≧50 = +++)
6,198 (ILTNKVVSV; listed as Homo sapiens) [compound 198],++ (≧20% = ++)
7,199 (SVADLAHVL; listed as Homo sapiens) [compound 199],++ (≧20% = ++)
8,200 (IMPTFDLTKV; listed as Homo sapiens) [compound 200],+++ (≧50 = +++)
9,203 (FLFVDPELV; listed as Homo sapiens) [compound 203],++ (≧20% = ++)
10,204 (SEWGSPHAAVP; listed as Homo sapiens) [compound 204],+++ (≧50 = +++)
11,206 (GLDAFRIFL; listed as Homo sapiens) [compound 206],++++ (≧75% = ++++)
12,207 (KLFETVEEL; listed as Homo sapiens) [compound 207],+++ (≧50 = +++)
13,208 (HLNNDRNPL; listed as Homo sapiens) [compound 208],++ (≧20% = ++)
14,210 (GLAGDNIYL; listed as Homo sapiens) [compound 210],+++ (≧50 = +++)
15,211 (LLTTVLINA; listed as Homo sapiens) [compound 211],+++ (≧50 = +++)
16,212 (MTLSEIHAV; listed as Homo sapiens) [compound 212],++ (≧20% = ++)
17,213 (ILAVDGVLSV; listed as Homo sapiens) [compound 213],+++ (≧50 = +++)
18,214 (ALFETLIQL; listed as Homo sapiens) [compound 214],+++ (≧50 = +++)
19,215 (QIADIVTSV; listed as Homo sapiens) [compound 215],++ (≧20% = ++)
